B1: QS4, yeast-expressed soluble protein (designed binder)
chain: EAAEMHSFCAFKADDGPCKARFERFFFNIFTRQCEQFYYGGCDGNQNRFESLEECKKMCTRD
notes: Expressed in S. cerevisiae from a mat alpha fusion, purified on trypsin-agarose; also called QS4 variant
B2: SPI08 (designed binder)
chain: MHSFCAFKADGGPCRARFERFFFNIFTRQCEEFIYGGCEGNQNRFESLEECKKMCTRD
notes: also called isolate 08
B3: SPI16 (designed binder)
chain: MHSFCAFKAEVGACKGRFHRWFFNIFTRQCEEFIYGGCEGNQNRFESLEECKKMCTRD
notes: 110 for the printed residues 10-21
B4: SPI05 (designed binder)
chain: MHSFCAFKAESGPCRAKFARFFFNIFTRQCEEFIYGGCEGNQNRFESLEECKKMCTRD
notes: 105 for the printed residues 10-21
B5: QS4 displayed on gIIIp of M13 (designed binder)
chain: MHSFCAFKADDGPCKARFERFFFNIFTRQCEQFYYGGCDGNQNRFESLEECKKMCTRD
notes: also called phage that display the LACI-K1 derivative QS4
B6: SPI11 (Selected Plasmin Inhibitor#11) (designed binder)
chain: MHSFCAFKAETGPCRARFDRWFFNIFTRQCEEFIYGGCEGNQNRFESLEECKKMCTRD
notes: also called isolate 11
B7: SPI54 (designed binder)
chain: MHSFCAFKADSGPCRARFDRWFFNIFTRQCTRFPYGGCGGNQNRFESLEECKKMCTRD
B8: SPI02 (designed binder)
chain: MHSFCAFKADSGPCRGRFERFFFNIFTRQCEEFIYGGCEGNQNRFESLEECKKMCTRD
notes: 102 for the printed residues 10-21
B9: SPI47 (designed binder)
chain: MHSFCAFKADAGPCRAKFERFFFNIFTRQCEEFIYGGCEGNQNRFESLEECKKMCTRD
B10: SPI23 (designed binder)
chain: MHSFCAFKAEGGPCRAKFQRWFFNIFTRQCEEFIYGGCEGNQNRFESLEECKKMCTRD
notes: also called isolate 23
B11: SPI03 (designed binder)
chain: MHSFCAFKADSGPCKARFDRWFFNIFTRQCEEFIYGGCEGNQNRFESLEECKKMCTRD
notes: 108 for the printed residues 10-21
B12: SPI22 (designed binder)
chain: MHSFCAFKADGGPCKGKFPRFFFNIFTRQCEEFIYGGCEGNQNRFESLEECKKMCTRD
notes: also called isolate 22
B13: SPI01 (designed binder)
chain: MHSFCAFKADSGACRAMFHRFFFNIFTRQCEEFIYGGCEGNQNRFESLEECKKMCTRD
notes: 112 for the printed residues 10-21
B14: SPI21 (designed binder)
chain: MHSFCAFKADSGACKGKFERWFFNIFTRQCEEFIYGGCEGNQNRFESLEECKKMCTRD
notes: 116 for the printed residues 10-21
B15: SPI17 (designed binder)
chain: MHSFCAFKAEVGPCRARIQRFFFNIFTRQCEEFIYGGCEGNQNRFESLEECKKMCTRD
notes: 104 for the printed residues 10-21
B16: SPI51 (designed binder)
chain: MHSFCAFKADAGPCRAKFERFFFNIFTRQCTAFFYGGCGGNQNRFESLEECKKMCTRD
B17: SPI43 (designed binder)
chain: MHSFCAFKAETGPCRGKFDRWFFNIFTRQCESFHYGGCKGNQNRFESLEECKKMCTRD
B18: SPI15 (designed binder)
chain: MHSFCAFKAESGPCRARFDRWFFNIFTRQCEEFIYGGCEGNQNRFESLEECKKMCTRD
notes: 41 for the whole domain; 90 for the printed residues 10-21; also called SP115; isolate 15

Tests used:
human plasmin [1] = target: T1, human plasmin (human, UniProt P00747 97-810, limits assumed); test: inhibition of plasmin hydrolysis of a fluorogenic substrate, tight-binding fit; measured Ki used as KD
T1 construct: also called plasmin-beads; plasmin-agarose beads

human plasmin [2] = target: T1, human plasmin; test: binding of clonally pure display phage to plasmin relative to BPTI display phage
human plasmin [3] = target: T1, human plasmin; test: display phage binding to protease beads
human plasmin [4] = target: T1, human plasmin; test: display phage binding to immobilised protease
Kallikrein = test: display phage binding to immobilised protease
Thrombin = test: display phage binding to immobilised protease
Trypsin [5] = target: T2, Trypsin; test: display phage binding to immobilised protease
T2 construct: also called trypsin-agarose beads

Trypsin [6] = target: T2, Trypsin; test: display phage binding to immobilised trypsin, 2 washes
human plasmin [7] = target: T1, human plasmin; test: inhibition of plasmin by soluble protein; measured Ki used as KD
human plasmin [8] = target: T1, human plasmin; test: as above; remark: listed apart in the source
human plasmin [9] = target: T1, human plasmin; test: preliminary plasmin inhibition test; measured Ki used as KD

T1 sequence (P00747 97-810 limits assumed): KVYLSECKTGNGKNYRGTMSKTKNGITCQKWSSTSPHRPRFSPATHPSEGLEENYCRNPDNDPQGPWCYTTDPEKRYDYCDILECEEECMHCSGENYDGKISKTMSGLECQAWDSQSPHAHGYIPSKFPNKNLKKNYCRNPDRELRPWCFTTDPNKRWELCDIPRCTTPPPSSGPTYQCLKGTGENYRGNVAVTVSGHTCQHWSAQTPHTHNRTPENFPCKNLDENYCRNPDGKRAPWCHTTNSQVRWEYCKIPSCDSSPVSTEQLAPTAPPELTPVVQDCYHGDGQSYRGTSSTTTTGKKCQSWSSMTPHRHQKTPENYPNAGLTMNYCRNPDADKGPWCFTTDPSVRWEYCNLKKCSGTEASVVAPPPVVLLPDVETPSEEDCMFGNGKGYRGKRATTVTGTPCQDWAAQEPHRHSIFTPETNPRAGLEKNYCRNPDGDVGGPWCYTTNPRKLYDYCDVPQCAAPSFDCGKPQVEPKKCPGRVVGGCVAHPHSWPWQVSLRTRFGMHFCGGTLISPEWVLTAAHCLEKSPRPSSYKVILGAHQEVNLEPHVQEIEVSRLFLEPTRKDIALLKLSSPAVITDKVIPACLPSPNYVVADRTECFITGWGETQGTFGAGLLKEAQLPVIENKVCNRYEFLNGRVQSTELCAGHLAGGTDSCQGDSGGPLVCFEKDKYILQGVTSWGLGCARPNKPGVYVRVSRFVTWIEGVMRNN
T2 sequence (P00760 24-246): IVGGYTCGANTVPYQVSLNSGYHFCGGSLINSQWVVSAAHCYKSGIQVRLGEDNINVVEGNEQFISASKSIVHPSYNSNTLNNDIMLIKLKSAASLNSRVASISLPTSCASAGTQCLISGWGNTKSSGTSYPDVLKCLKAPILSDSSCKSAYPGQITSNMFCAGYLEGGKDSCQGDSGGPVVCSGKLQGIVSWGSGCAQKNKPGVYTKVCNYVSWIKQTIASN
Sequence of Kallikrein (P03952 20-390, chain 1 of 2): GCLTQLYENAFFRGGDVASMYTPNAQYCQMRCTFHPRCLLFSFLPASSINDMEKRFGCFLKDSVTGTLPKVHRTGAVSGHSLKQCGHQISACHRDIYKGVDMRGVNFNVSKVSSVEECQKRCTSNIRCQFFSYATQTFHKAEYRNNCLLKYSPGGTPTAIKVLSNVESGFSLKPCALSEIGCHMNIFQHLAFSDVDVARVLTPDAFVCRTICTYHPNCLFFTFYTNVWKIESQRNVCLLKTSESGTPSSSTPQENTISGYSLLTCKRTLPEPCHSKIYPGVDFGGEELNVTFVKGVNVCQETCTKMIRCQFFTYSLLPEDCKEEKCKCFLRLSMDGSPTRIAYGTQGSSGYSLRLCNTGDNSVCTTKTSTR
Sequence of Kallikrein (P03952 391-638, chain 2 of 2): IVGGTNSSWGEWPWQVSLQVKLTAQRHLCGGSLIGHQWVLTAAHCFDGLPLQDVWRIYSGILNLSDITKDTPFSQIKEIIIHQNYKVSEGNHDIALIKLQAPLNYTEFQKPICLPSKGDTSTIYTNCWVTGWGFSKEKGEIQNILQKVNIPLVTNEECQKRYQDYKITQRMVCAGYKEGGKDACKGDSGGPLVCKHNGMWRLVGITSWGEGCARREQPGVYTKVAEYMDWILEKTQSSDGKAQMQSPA

Row | Binder | Phage Binding (relative to BPTI phage) (human plasmin [2]) | Kd (human plasmin [9]) [nM] | also measured
1 | B1 | – | – | Kd (human plasmin [1]): 2 nM
2 | B2 | 2.6 fold of BPTI phage | – | –
3 | B3 | 0.22 fold of BPTI phage | – | –
4 | B4 | 0.64 fold of BPTI phage | – | –
5 | B5 | – | – | fold binding to plasmin beads over other protease targets (human plasmin [3]): ≥ 50 fold; relative binding (LACI-K1 phage = unit) (human plasmin [4]): 52 fold of LACI-K1 phage; relative binding (LACI-K1 phage = unit) (Kallikrein): 0.9 fold of LACI-K1 phage; relative binding (LACI-K1 phage = unit) (Thrombin): 0.7 fold of LACI-K1 phage; relative binding (LACI-K1 phage = unit) (Trypsin [5]): 4.5 fold of LACI-K1 phage; relative binding (LACI-K1 phage = unit) (Trypsin [6]): 0.5 fold of LACI-K1 phage
6 | B6 | 3.2 fold of BPTI phage | – | Kd (human plasmin [7]): 0.088 nM; Kd (human plasmin [8]): 0.088 nM
7 | B7 | – | > 4 | –
8 | B8 | 0.83 fold of BPTI phage | – | –
9 | B9 | – | ~0.8 | –
10 | B10 | 1.25 fold of BPTI phage | ~0.5 | –
11 | B11 | 0.48 fold of BPTI phage | – | –
12 | B12 | 2 fold of BPTI phage | > 2 | –
13 | B13 | 0.25 fold of BPTI phage | – | –
14 | B14 | 0.38 fold of BPTI phage | – | –
15 | B15 | 0.09 fold of BPTI phage | – | –
16 | B16 | – | ~0.5 | –
17 | B17 | – | > 4 | –
18 | B18 | 2.5 fold of BPTI phage | – | –
